In patent publication US20250076314A1 (NORDIC BIOSCIENCE A S, published 2025):
Where no end group is shown, it is not given here. The star is where a group is joined. Biotin = O=C1N[C@H]2[C@H](CS[C@H]2CCCCC(=O)*)N1

T1: Nonsense coating peptide LHDSNPYPRR-K-Biotin
T1 peptide: LHDSNPYPRRK(Biotin)

T2: Truncated peptide IQWNAPQPS
T2 construct: also called deselection peptide
T2 peptide: IQWNAPQPS

T3: Nonsense peptide LHDSNPYPRR
T3 construct: also called nonsense selection peptide; deselection peptide
T3 peptide: LHDSNPYPRR

T4: Elongated peptide HPIQWNAPQPS
T4 construct: also called deselection peptide
T4 peptide: HPIQWNAPQPS

T5: Coating peptide PIQWNAPQPS-K-Biotin (human)
T5 construct: also called biotin-labelled peptide
T5 peptide: PIQWNAPQPSK(Biotin)

B1: FN-ANA monoclonal antibody (mAb raised against the FN-ANA neoepitope sequence …) (antibody, mouse IgG1, kappa, V domains shown)
VH: QVQLQQSGAELVRPGASVKLSCKALGYTLTDYEMHWVKQTPVHGLEWIGAIHPGRGAAAYNQKFKDKATLTADKSSSTAYMELSSLTSEDSAVYYCTRSEEYGNYEDAMDYWGQGTSVTVSS
VL: DVVMTQTPLSLPVSLGDQASISCRSSQSLVHSNGNTYLHWFLQKPGQSPKLLIYKVSNRFSGVPDRFSGSGSGTDFTLKISRVEAEDLGVYFCSQSTHVPYTFGGGTKLEIKR
modifications: antibody labeled with HRP (site not stated)
notes: Mouse IgG1/kappa from a hybridoma, purified and HRP-labelled for the assay; also called FN-ANA mAb; FN-ANA antibody
B2: Selection peptide PIQWNAPQPS (peptide)
peptide: PIQWNAPQPS
notes: Synthetic peptide from Genscript

Experiments:
[1] = target: T1, Nonsense coating peptide …; test: ELISA with the nonsense coating peptide on a streptavidin plate, colorimetric detection (OD 450 nm)
[2] = target: T2, Truncated peptide IQWNAPQPS; test: competitive ELISA, colorimetric detection (OD 450 nm), two-fold diluted peptides
Experimental: (§1) No. 655995, Greiner Bio-one, Taufkirchen, Germany), whereafter it was incubated for 30 minutes at 20° C. with 300 RPM orbital shaking. After incubation, the plate was emptied and washed 5 times in washing buffer (consisting of 25 mM Tris, 3.0 g/L NaCl, 0.1% (w/v) Tween-20, pH 7.2). A 10-point calibration curve with 2-fold dilution was prepared from a start concentration of 200 ng/ml selection peptide ([…] (SEQ ID NO: 1)) in incubation buffer (50 mM TBS-BTB, 4.0 g/L NaCl, 0.20 g/L KCl, 5% Liquid II (cat. No. 11941836001, Roche), pH 8.0). 20 μL/well of standards, assay controls, and serum samples were added to appropriate wells in double determinations followed by the addition of 100 μL/well of 6 ng/ml of HRP-labelled mAb in incubation buffer, whereafter plates were incubated at 4° C. for 20 hours with 300 RPM orbital shaking. The following day, chemiluminescence substrate (cat. No. 11582950001, Roche Diagnostics) was prepared according to manufacturer's instructions and mixed by rotation in the dark for 20 minutes at room temperature prior to plate analysis. Following a washing step, 100 µL/well of chemiluminescence substrate was added, and the plate was incubated for a total of 3 minutes in darkness with 1 minute of 300 RPM orbital shaking before detection with luminescence on a SpectraMax i3x microplate reader (Molecular Devices, Sunnyvale CA, USA) at 1 second integration time at all wavelengths as microplate reader settings. […]
(§2) Antibody specificity was evaluated using the synthetic peptides and determined as a percentage of signal inhibition of two-fold diluted selection and deselection peptides (elongated, truncated, and nonsense) in addition to a non-sense coating (peptide details are listed in Table 1) using a colorimetric detection method with 96-well streptavidin-coated microtiter plate (cat. No. 11940279, Roche Diagnostics, Hvidovre, Denmark) and using the above procedure with the following exceptions: Instead of adding chemiluminescent substrate, the colorimetric substrate 3,3′,5,5′-tetramethylbenzidine One (cat. […]

[3] = target: T3, Nonsense peptide LHDSNPYPRR; test: as above
Experimental: as §1, §2

[4] = target: T4, Elongated peptide HPIQWNAPQPS; test: as above
Experimental: as §1, §2

[5] = target: T5, Coating peptide PIQWNAPQPS-K-Biotin; test: competitive ELISA, colorimetric detection
[6] = target: B2; test: competitive ELISA, colorimetric detection
[7] = target: B1; test: competitive chemiluminescent ELISA, ten independent runs: selection peptide competes with plate-bound coating peptide …-K-biotin for HRP-labelled mAb; 20 h at 4 C
Experimental: The final FN-ANA assay parameters were determined empirically by several optimizing experiments where various reagents, concentrations, incubation time and temperature were investigated in addition to testing reactivity to selection and deselection peptides (Table 1) and human sera. The final FN-ANA competitive ELISA procedure was conducted with chemiluminescence detection and determined as follows: 100 μL of 3 ng/ml coating peptide ([…]-K-biotin (SEQ ID NO: 5)) in coating buffer (50 mM tris-buffered saline (TBS) with 1% (w/v) bovine serum albumin, 0.1% (w/v) Tween-20, and 0.36% (v/v) Bronidox (BTB), 4 g/L NaCl, 0.20 g/L KCl, pH 8.0) was added to each well in a 96-well streptavidin-coated microtiter white plate (cat. No. 655995, Greiner Bio-one, Taufkirchen, Germany), whereafter it was incubated for 30 minutes at 20° C. with 300 RPM orbital shaking. After incubation, the plate was emptied and washed 5 times in washing buffer (consisting of 25 mM Tris, 3.0 g/L NaCl, 0.1% (w/v) Tween-20, pH 7.2). […] Following a washing step, 100 µL/well of chemiluminescence substrate was added, and the plate was incubated for a total of 3 minutes in darkness with 1 minute of 300 RPM orbital shaking before detection with luminescence on a SpectraMax i3x microplate reader (Molecular Devices, Sunnyvale CA, USA) at 1 second integration time at all wavelengths as microplate reader settings. […]

Binder	binding result [1]	binding result [2]	binding result [3]	binding result [4]	binding result [5]	binding result [6]	IC50 [7] [ng/mL]
B1	no binding	no binding	no binding	no binding	binds	binds	
B2							8.86
